Legend:
Details in all cases: EMSA per cited procedure (ref 27); buffer, salt, pH and temperature not given in the material
[1] = test system: T1, TarR (Bacillus velezensis FZB42), ORF:a9b72c09; assay: DNase I footprinting
T1 sequence: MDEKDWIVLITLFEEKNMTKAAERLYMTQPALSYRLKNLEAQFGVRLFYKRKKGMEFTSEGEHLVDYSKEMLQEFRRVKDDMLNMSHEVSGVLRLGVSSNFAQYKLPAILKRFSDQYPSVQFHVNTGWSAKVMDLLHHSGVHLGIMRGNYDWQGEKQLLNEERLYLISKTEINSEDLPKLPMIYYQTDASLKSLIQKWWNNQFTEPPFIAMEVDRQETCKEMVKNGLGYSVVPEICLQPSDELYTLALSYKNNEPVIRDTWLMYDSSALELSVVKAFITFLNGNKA

[2] = test system: T2, TarRN1-91 (Bacillus velezensis FZB42), ORF:46dabd2b; assay: EMSA?
T2 sequence: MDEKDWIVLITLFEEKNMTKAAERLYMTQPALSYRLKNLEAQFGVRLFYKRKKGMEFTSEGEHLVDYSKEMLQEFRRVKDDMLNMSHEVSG

[3] = test system: T1, TarR (Bacillus velezensis FZB42), ORF:a9b72c09; assay: EMSA

GCTGTCTCATCCTTACATCATTTTGTGTGGATAAAAAGGTACCGGTCCCTTTGGAAAATATCGTATGATAAATAAGGATTATAAGTAAAACATATAATTTTTATAAAGTTGAATAAAAAAAATTTATAATAAGAGAAAATTTTATAGCAGAAAAATATTTTGGGGGATTTCAT (double strand) [Ptar]
binding [1]: binds
binding [2]: binds
binding [3]: binds

AGCGAAAATATTTTTTAAAAAAGTATTGACCTAGCAAACTGAAAATGTTATGATTAAGAGGTCGCTTCGAGAGAAGCAACAAAGTTCTTTGAAAACTAAACAAGACAAAACGTACCTGTTAATTCAAAGTTTTAAATAAATCGCACAGCGATGTGCGTAGTCAGTCAAACTAC (double strand) [P16S]
binding [3]: no binding

Reference: publication PMC11495376
